This is an account of results in publication PMC9887734, “Meeting abstracts from the 10th International Conference on cGMP: Generators, Effectors and Therapeutic Implications” (Journal of Translational Medicine, 2023).

Series [1] deals with the molecule itself. As to the kind of experiment: cryo-EM structure; human cone photoreceptor CNG channel CNGA3/CNGB3 in the apo state.
Series [2] concerns the target T1, CNGB3 subunit of the human cone photoreceptor CNG channel (human, UniProt Q9NQW8 1-809).
T1 construct: CNGB3, human cone photoreceptor cyclic nucleotide-gated channel subunit; One copy stands in the CNGA3/CNGB3 channel
T1 sequence (looked up): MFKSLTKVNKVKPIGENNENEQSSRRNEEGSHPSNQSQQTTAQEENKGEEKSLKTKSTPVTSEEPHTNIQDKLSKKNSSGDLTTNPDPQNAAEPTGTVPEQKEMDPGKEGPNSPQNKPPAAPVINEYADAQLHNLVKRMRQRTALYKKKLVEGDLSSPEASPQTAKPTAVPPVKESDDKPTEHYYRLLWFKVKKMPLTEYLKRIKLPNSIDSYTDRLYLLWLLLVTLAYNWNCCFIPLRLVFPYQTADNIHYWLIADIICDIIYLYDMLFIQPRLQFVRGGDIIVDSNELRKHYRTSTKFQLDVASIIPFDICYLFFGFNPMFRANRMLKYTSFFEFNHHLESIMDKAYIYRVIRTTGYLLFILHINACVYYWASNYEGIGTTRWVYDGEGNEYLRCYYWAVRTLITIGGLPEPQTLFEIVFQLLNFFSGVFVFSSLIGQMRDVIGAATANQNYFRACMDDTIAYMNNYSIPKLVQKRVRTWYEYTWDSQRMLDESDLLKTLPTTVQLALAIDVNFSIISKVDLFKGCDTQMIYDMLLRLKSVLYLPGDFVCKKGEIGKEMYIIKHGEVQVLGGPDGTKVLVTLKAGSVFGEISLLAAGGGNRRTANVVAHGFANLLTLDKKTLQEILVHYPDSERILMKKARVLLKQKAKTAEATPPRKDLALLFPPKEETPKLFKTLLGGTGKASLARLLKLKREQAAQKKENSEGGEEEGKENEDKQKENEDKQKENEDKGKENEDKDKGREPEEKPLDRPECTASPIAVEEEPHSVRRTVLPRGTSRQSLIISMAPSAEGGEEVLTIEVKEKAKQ
The description is as above. The conditions noted are these: both partners purified.

In general, stoichiometry N refers to the number of molecules, sites or subunits per partner or assembly.

B1: CNGA3 subunit of the human cone photoreceptor CNG channel (natural protein, UniProt Q16281 1-694, looked up)
chain: MAKINTQYSHPSRTHLKVKTSDRDLNRAENGLSRAHSSSEETSSVLQPGIAMETRGLADSGQGSFTGQGIARLSRLIFLLRRWAARHVHHQDQGPDSFPDRFRGAELKEVSSQESNAQANVGSQEPADRGRSAWPLAKCNTNTSNNTEEEKKTKKKDAIVVDPSSNLYYRWLTAIALPVFYNWYLLICRACFDELQSEYLMLWLVLDYSADVLYVLDVLVRARTGFLEQGLMVSDTNRLWQHYKTTTQFKLDVLSLVPTDLAYLKVGTNYPEVRFNRLLKFSRLFEFFDRTETRTNYPNMFRIGNLVLYILIIIHWNACIYFAISKFIGFGTDSWVYPNISIPEHGRLSRKYIYSLYWSTLTLTTIGETPPPVKDEEYLFVVVDFLVGVLIFATIVGNVGSMISNMNASRAEFQAKIDSIKQYMQFRKVTKDLETRVIRWFDYLWANKKTVDEKEVLKSLPDKLKAEIAINVHLDTLKKVRIFQDCEAGLLVELVLKLRPTVFSPGDYICKKGDIGKEMYIINEGKLAVVADDGVTQFVVLSDGSYFGEISILNIKGSKSGNRRTANIRSIGYSDLFCLSKDDLMEALTEYPEAKKALEEKGRQILMKDNLIDEELARAGADPKDLEEKVEQLGSSLDTLQTRFARLLAEYNATQMKMKQRLSQLESQVKGGGDKPLADGEVPGDATKTEDKQQ
notes: CNGA3, human cone photoreceptor cyclic nucleotide-gated channel subunit; Three copies stand in the CNGA3/CNGB3 channel whose cryo-EM structure (apo state) is reported
B1: the binding result in series [1] is “binds”. Also, the “stoichiometry N” value in series [2] came to 3 CNGA3 per CNGB3.
